From patent US20250002577A1 (ONCORESPONSE, published 2025) come the findings set out here.

For assay [1], the target named is T1, human LILRB1 on cells (human, UniProt Q8NHL6 24-650).
T1 construct: whole, on cells; also called hLILRB1; LILRB1-expressing 721.221 cells
In words: flow cytometry, HEK293-6E transfectants. How it is done: (§1) To determine that the parent chimera anti LILRB2/1 antibody specifically binds to LILRB2 and LILRB1 and not to other LILRB and LILRA family members, a cross-reactivity assay was performed. Cross-reactivity was assessed by antibody binding to transiently transfected HEK293-6E cells by flow cytometry. Binding was evaluated to HEK293-6E cells transiently transfected with human LILRB-1, -2, -3, -4, and 5 plasmids (Origene, Nos. RC219949, RC217935, RC211228, RC220932, RC206516) or to cells transiently transfected with human LILRA-1, -2, -4, -5, and -6 plasmids (Origene, Nos. RC210808, RC205626, RC220452, RC212310 RC212965). […] At a concentration of 1 μg/mL, no binding of B21A1 or the humanized variants to LILRB-3, -4, or -5 was observed (Table 7). Additionally, no binding to LILRA-1, -2, -4, -5, or -6 was observed, confirming the specificity of B21A1 and its humanized variants to LILRB1 and LILRB2 (Table 8).
For orientation: In flow cytometry, cells or beads pass a laser one at a time.

Assay [2] addresses T2, human LILRB2 on cells (human, UniProt Q8N423 22-597).
T2 construct: whole, on cells; also called hLILRB2; LILRB2-HEK293T
In words: flow cytometry, HEK293-6E transfectants. How it is done:
as §1

In assay [3] the target is T3, human LILRB3 on HEK293-6E cells (human, UniProt O75022 24-631).
T3 construct: whole, on cells; also called hLILRB3
The assay can be described thus: flow cytometry, HEK293-6E transfectants. How it is done:
as §1

For assay [4], the target named is T4, human LILRB4 on HEK293-6E cells (human, UniProt Q8NHJ6 22-448).
T4 construct: whole, on cells; also called hLILRB4
The assay can be described thus: flow cytometry, HEK293-6E transfectants. How it is done:
as §1

For assay [5], the target named is T5, human LILRB5 on HEK293-6E cells (human, UniProt O75023 24-590).
T5 construct: whole, on cells; also called hLILRB5
The assay can be described thus: flow cytometry, HEK293-6E transfectants. How it is done: as §1

The target of assay [6] is T6, human LILRA1 on HEK293-6E cells (human, UniProt O75019 17-489).
T6 construct: whole, on cells; also called hLILRA1
The assay can be described thus: flow cytometry, HEK293-6E transfectants. How it is done:
as §1

The target of assay [7] is T7, human LILRA2 on HEK293-6E cells (human, UniProt Q8N149 24-483).
T7 construct: whole, on cells; also called hLILRA2
In words: flow cytometry, HEK293-6E transfectants. How it is done: as §1

For assay [8], the target named is T8, human LILRA4 on HEK293-6E cells (human, UniProt P59901 24-499).
T8 construct: whole, on cells; also called hLILRA4
In words: flow cytometry, HEK293-6E transfectants. How it is done:
as §1

The target in assay [9] is T9, human LILRA5 on HEK293-6E cells (human, UniProt A6NI73 42-299).
T9 construct: whole, on cells; also called hLILRA5
The assay can be described thus: flow cytometry, HEK293-6E transfectants. How it is done:
as §1

In assay [10] the target is T10, human LILRA6 on HEK293-6E cells (human, UniProt Q6PI73 24-481).
T10 construct: whole, on cells; also called hLILRA6
In words: flow cytometry, HEK293-6E transfectants. How it is done:
as §1

Assay [11] concerns the target T11, recombinant human LILRB1-His (human, UniProt Q8NHL6 24-458).
T11 construct: Bought protein; also called LILRB1 protein
The assay can be described thus: MSD ELISA, coated antigen, purified IgG1. How it is done:
(§2) Recombinant human and cynomolgus LILRB1 proteins (R&D Systems, No. 8989-T2-050; ACROBiosystems, No. CDJ-C52H3) and recombinant human and cynomolgus LILRB2 proteins (ACROBiosystems, No. LI2-H5220; No. L12-C52H3) were diluted in PBS to 4 μg/mL and added to a multi-array 384-well high-binding plates (MSD, No. L21XA4) at 10 μL/well and incubated at 4° C. overnight. The plates were washed several times with Wash Buffer (0.05% Tween® 20 in PBS), using a microplate washer and then blocked with 70 μL/well of 5% BSA in PBS for 1 hour (h) at room temperature (RT) with shaking at 700 rpm. After blocking, 20 μL/well of anti-LILRB2/LILRB1 antibodies or isotype control were added to the plates, and the plates were sealed and incubated for 2 h at RT with shaking at 700 rpm. After primary antibody binding, plates were washed five times with 70 μL/well of Wash Buffer (0.05% Tween® 20 in PBS) using a microplate washer. Secondary detection antibody (SULFO-TAG™-labeled goat anti-human IgG antibody (MSD, No. R32AJ-1)) was diluted to 4 μg/mL in assay diluent (1% BSA in PBS) and 10 μL/well was added to plates and incubated at RT protected from light for 1 h, with shaking at 700 rpm. Following incubation, plates were washed five times with Wash Buffer, using a microplate washer. After removal of the final wash, 35 μL/well of MSD Gold Read Buffer B (MSD, No. R60AM-4) was added to all wells using a Multidrop combo washer/dispenser, and plates were read using MESO Sector 600MM instrument (MSD) within 5 minutes (min) after addition of Read Buffer. Signals as counts per minute (cpm) were recorded. EC₅₀ values were calculated using GraphPad Prism based on log concentration of the primary antibodies versus cpm values.
(In general: ELISA stands for enzyme-linked immunosorbent assay.)

Assay [12] concerns the target T12, recombinant human LILRB2-His (human, UniProt Q8N423 22-461, limits assumed).
T12 construct: Bought protein; also called LILRB2 protein
In words: MSD ELISA, coated antigen, purified IgG1. How it is done: as §2

Assay [13] concerns the target T13, recombinant cynomolgus LILRB1 (cynomolgus).
T13 construct: Bought protein
The assay can be described thus: MSD ELISA, coated antigen, purified IgG1. How it is done: as §2

Assay [14] concerns the target T2, human LILRB2 on cells. In words: flow cytometry, LILRB2-HEK293T cells, AF647-labelled antibody. How it is done:
(§3) While LILRB2 expression is mostly restricted to myeloid cells, LILRB1 has a broader expression on immune cell subsets, including B cells, T cells and NK cells.
(§4) Frozen cells were removed from storage in vapor phase liquid nitrogen and thawed by gentle swirling in a water bath at 37° C., then resuspended in DMEM media with 10% FBS. Cells were placed in a 15 mL conical tube and centrifuged at 300×g for 5 min, then supernatant was removed. Cells were resuspended in DMEM+10% FBS at a cell density of 2×10⁵ cells/mL in a T75 flask for culturing, and incubated at 37° C., 5% CO₂ for 3 days before passaging. Cells were passaged when the cell density reached 1×10⁶ cell/mL. On the day of the assay, cells were centrifuged, then supernatant was removed. Cells were resuspended in Blocking Buffer B (FACS Buffer containing 10% FBS and 0.5 mg/mL human IgG1 (Athens Research, No. 16-16-090707-1M)+0.05% NaN₃, 5% (w/v)) in a 15 mL conical tube, then incubated at 4° C. for 30 min. […] Cells were incubated with antibodies at 4° C. for 1 h. Cells were washed twice in FACS Buffer (PBS containing 2 mM EDTA+1% FBS+0.05% NaN₃) and then stained with for 10 min with Zombie Violet™ fixable viability dye (BioLegend, No. 423114) at RT, washed with FACS Buffer and resuspend in 75 μL of FACS Buffer for acquisition on a BD FACSymphony™ or BD FACSCanto™ II flow cytometer (BD Biosciences), as described in Example 6.

For assay [15], the target named is T1, human LILRB1 on cells. In words: flow cytometry, 721.221 cells, AF647-labelled antibody. How it is done:
as §3, §4

The term EC50 denotes the concentration that produces a half-maximal response.

T12 sequence (Q8N423 22-461 limits assumed): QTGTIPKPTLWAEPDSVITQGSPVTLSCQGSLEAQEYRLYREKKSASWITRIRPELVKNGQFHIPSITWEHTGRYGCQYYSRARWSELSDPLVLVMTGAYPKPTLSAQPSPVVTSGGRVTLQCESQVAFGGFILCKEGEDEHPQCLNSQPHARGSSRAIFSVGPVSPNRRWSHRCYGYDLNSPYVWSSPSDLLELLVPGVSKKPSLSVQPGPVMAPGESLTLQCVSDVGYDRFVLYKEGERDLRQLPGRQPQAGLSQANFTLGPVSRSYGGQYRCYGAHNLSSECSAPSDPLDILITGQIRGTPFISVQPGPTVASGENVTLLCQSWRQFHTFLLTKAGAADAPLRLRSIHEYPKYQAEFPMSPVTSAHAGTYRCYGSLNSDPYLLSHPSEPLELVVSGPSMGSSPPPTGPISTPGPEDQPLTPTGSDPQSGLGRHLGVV
T2 sequence (Q8N423 22-597): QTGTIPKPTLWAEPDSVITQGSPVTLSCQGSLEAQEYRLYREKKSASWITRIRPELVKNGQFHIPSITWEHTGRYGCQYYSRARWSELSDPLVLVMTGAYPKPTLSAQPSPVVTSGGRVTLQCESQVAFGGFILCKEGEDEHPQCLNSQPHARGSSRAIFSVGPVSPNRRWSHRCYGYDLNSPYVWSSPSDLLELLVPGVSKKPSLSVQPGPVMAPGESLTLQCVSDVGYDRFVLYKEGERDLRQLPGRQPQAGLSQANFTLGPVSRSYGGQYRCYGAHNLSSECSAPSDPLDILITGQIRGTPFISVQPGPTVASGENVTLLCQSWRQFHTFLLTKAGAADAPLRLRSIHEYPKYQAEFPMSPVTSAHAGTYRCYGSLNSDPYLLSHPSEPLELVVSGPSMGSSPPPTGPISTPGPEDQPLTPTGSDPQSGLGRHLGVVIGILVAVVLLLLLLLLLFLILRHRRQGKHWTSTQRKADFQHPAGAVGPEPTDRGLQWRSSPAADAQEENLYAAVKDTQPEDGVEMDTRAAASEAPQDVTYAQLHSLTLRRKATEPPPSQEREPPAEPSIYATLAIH
T5 sequence (O75023 24-590): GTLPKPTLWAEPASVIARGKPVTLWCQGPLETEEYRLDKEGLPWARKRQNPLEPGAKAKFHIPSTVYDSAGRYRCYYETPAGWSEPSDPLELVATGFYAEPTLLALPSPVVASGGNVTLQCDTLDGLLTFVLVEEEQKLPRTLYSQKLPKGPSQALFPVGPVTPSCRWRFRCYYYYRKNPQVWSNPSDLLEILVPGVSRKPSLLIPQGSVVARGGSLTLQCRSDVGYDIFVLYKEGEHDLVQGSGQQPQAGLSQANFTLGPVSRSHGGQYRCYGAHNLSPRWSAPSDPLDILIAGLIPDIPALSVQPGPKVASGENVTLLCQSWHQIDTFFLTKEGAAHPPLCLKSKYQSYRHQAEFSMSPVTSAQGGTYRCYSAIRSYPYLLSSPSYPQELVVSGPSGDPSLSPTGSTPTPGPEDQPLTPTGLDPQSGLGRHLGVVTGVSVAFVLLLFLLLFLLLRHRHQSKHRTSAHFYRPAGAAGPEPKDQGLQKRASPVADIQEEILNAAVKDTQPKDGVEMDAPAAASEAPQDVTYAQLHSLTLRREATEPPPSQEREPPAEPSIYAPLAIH
T9 sequence (A6NI73 42-299): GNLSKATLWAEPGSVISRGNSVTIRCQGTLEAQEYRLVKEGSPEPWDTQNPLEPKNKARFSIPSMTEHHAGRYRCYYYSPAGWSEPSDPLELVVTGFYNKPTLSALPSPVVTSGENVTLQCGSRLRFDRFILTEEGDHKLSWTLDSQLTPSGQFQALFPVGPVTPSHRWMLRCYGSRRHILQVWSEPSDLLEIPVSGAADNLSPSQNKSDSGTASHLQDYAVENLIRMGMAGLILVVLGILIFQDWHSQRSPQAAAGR
T7 sequence (Q8N149 24-483): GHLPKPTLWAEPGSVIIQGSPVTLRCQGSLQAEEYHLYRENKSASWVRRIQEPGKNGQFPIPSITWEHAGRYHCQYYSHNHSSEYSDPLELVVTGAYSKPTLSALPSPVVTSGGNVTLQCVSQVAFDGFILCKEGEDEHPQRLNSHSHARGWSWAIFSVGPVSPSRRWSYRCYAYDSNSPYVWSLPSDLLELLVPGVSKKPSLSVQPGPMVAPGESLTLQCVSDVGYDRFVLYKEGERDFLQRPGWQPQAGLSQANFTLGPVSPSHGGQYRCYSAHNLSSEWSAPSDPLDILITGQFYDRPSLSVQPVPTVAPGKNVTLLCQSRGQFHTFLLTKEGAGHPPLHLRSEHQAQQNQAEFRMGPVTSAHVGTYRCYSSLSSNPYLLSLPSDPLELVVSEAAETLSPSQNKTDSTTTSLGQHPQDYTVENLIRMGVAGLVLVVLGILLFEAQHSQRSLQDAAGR
T3 sequence (O75022 24-631): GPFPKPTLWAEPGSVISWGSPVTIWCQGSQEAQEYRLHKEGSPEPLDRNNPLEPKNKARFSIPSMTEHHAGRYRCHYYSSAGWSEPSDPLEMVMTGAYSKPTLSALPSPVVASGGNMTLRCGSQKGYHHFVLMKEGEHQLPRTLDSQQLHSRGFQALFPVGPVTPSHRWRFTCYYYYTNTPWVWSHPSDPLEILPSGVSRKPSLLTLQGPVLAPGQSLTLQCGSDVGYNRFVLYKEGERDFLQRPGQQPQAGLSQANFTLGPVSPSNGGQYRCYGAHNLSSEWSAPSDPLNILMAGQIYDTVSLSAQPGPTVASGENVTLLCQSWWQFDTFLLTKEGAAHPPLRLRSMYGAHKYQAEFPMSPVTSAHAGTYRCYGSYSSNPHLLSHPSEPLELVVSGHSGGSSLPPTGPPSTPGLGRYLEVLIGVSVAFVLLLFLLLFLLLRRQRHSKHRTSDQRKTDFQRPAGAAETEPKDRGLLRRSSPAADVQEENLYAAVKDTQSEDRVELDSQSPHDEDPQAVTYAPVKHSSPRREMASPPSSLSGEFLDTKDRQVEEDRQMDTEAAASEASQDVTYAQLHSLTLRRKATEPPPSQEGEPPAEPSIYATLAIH
T8 sequence (P59901 24-499): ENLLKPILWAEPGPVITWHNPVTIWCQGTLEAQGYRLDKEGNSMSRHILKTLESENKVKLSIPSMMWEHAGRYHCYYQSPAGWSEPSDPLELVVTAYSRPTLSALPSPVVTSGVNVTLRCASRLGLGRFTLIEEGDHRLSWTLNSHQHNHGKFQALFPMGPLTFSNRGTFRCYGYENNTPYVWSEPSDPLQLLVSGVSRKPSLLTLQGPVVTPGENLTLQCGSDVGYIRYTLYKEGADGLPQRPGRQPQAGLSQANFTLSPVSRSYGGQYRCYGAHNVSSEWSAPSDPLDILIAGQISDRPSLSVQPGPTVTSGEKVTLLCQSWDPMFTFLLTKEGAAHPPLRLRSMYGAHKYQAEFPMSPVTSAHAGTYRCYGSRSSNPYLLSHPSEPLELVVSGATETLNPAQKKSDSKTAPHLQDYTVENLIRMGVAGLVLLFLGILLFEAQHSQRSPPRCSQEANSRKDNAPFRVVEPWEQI
T10 sequence (Q6PI73 24-481): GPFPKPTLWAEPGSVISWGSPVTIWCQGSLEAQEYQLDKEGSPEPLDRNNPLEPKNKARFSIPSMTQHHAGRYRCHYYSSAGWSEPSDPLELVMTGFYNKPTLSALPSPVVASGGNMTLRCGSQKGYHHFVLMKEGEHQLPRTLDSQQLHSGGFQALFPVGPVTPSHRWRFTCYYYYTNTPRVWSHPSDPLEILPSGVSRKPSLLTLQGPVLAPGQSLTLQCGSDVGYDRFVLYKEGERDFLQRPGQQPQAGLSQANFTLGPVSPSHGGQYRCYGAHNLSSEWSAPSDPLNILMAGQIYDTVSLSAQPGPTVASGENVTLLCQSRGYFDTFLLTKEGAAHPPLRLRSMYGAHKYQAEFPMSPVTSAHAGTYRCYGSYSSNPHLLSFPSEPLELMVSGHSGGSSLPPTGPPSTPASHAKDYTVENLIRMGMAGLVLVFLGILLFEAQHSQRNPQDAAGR
T6 sequence (O75019 17-489): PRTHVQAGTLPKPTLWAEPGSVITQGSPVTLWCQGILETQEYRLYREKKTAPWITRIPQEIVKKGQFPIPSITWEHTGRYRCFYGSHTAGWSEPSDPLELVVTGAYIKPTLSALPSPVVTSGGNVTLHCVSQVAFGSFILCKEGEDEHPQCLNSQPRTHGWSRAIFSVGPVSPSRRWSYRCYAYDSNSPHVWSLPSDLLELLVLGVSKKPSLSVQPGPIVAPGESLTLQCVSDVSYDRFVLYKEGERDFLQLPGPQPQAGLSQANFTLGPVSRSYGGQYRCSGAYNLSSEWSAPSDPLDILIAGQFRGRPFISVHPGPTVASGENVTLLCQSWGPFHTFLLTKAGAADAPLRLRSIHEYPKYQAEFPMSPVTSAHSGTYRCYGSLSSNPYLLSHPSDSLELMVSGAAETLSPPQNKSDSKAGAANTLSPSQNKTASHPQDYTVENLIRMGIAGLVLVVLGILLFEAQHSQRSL
T1 sequence (Q8NHL6 24-650): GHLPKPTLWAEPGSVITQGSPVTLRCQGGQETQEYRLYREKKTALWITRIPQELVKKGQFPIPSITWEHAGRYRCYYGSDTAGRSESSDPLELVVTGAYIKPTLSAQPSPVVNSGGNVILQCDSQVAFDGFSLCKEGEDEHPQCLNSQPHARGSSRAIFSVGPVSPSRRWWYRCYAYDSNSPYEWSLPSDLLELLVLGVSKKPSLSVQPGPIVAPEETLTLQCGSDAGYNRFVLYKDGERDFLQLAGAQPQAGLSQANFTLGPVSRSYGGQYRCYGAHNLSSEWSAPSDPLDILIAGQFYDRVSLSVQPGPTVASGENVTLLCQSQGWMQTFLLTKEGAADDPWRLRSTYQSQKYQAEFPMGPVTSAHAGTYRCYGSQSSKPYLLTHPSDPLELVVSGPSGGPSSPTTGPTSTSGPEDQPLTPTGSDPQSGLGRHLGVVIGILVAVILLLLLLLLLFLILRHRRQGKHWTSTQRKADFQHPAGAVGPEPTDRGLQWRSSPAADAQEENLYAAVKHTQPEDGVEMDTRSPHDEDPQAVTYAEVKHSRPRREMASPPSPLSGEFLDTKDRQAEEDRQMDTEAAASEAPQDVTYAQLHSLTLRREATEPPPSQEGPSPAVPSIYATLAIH

B1: B21H1-33 (antibody, human IgG1, kappa)
heavy: not shown
light: DIVMTQSPSSVSASVGDRVTITCQASGNIYSFLAWYQQKPGKAPKLLIYTASNLETGVPSRFSGSGSGTDFTLTISSLQPEDFATYYCLGGLYSSDVSYAFGGGTKVVIKRTVAAPSVFIFPPSDEQLKSGTASVVCLLNNFYPREAKVQWKVDNALQSGNSQESVTEQDSKDSTYSLSSTLTLSKADYEKHKVYACEVTHQGLSSPVTKSFNRGEC
notes: humanized IgG1/kappa, VH3+VL3
For B1, the MFI was determined as 860 MFI with human LILRB1 on cells [1]; 6290 MFI with human LILRB2 on cells [2]; 89.2 MFI in assay [3]; 27.4 MFI in assay [4]; 85.8 MFI in assay [5]; 204 MFI in assay [6]. For the same molecule, the MFI in assay [7] stood at 25.9 MFI; in assay [8], 112 MFI; in assay [9] it was 73.1 MFI; in [10] it was 140 MFI. Moreover, the binding result in assay [3], in [4], in [5], in assay [6], in assay [7] and in assay [8] was “no binding (tested: 1 µg/mL)” each time. Moreover, the binding result in [9] and in assay [10] was “no binding (tested: 1 µg/mL)” throughout. In addition, the EC50 came to 0.00616 µg/mL in assay [11], 0.0225 µg/mL in assay [12], 5.85 µg/mL in assay [13] and 0.00144 µg/mL with human LILRB2 on cells [14].

B2: B21A1 (antibody, human IgG1, kappa)
heavy: not shown
light: DIVMTQTPASVEAAVGGTVTINCQASGNIYSFLAWYQQKPGQPPKLLIYTASNLETGVPSRFSGSGSGTEYTLTISGVQCDDAATYYCLGGLYSSDVSYAFGGGTEVVVKRTVAAPSVFIFPPSDEQLKSGTASVVCLLNNFYPREAKVQWKVDNALQSGNSQESVTEQDSKDSTYSLSSTLTLSKADYEKHKVYACEVTHQGLSSPVTKSFNRGEC
notes: Rabbit/human chimera, human IgG1/kappa; AF647-conjugated in the flow cytometry titrations; also called B21A1 chimera IgG1; parent B21A1
As for B2, the MFI in the assay with human LILRB1 on cells [1] is 940 MFI; with human LILRB2 on cells [2], 5380 MFI; in assay [3], 107 MFI; in assay [4], 35.2 MFI; in assay [5], 101 MFI; in assay [6], 264 MFI. Also, the MFI in [7] worked out at 30.2 MFI; in assay [8], 143 MFI; in [9], 78.5 MFI; in [10], 150 MFI. Besides, the binding result in assay [3], in assay [4], in [5], in assay [6], in assay [7] and in assay [8] was “no binding (tested: 1 µg/mL)” each time. The binding result in assay [9] and in [10] was “no binding (tested: 1 µg/mL)” each time. The EC50 in [11] stood at 0.0105 µg/mL; in [12], 0.038 µg/mL; in [13], 0.306 µg/mL; in the assay with human LILRB1 on cells [15], 0.0448 µg/mL; with human LILRB2 on cells [14], 0.0008 µg/mL.

B3: B21H1-45 (antibody, human IgG1, kappa)
heavy: not shown
light: DIQMTQTPSTVEASVGGTVTITCQASGNIYSFLAWYQQKPGQPPKLLIYTASNLETGVPSRFSGSGSGTEYTLTISGLQSDDAATYYCLGGLYSSDVSYAFGGGTEVVVKRTVAAPSVFIFPPSDEQLKSGTASVVCLLNNFYPREAKVQWKVDNALQSGNSQESVTEQDSKDSTYSLSSTLTLSKADYEKHKVYACEVTHQGLSSPVTKSFNRGEC
notes: humanized IgG1/kappa, VH4+VL5
In the case of B3, the MFI in the assay with human LILRB1 on cells [1] came out at 997 MFI; with human LILRB2 on cells [2], 6680 MFI; in [3], 81 MFI; in [4], 27.2 MFI; in [5] it was 83.6 MFI; in [6] it was 264 MFI. In addition, the MFI in [7] turned out to be 26.2 MFI; in [8], 108 MFI; in assay [9], 71 MFI; in assay [10], 135 MFI. Moreover, the binding result in assay [3], in assay [4], in [5], in assay [6], in assay [7] and in assay [8] was “no binding (tested: 1 µg/mL)” each time. In addition, the binding result in assay [9] and in [10] was “no binding (tested: 1 µg/mL)” in each case. The EC50 in [11] was 0.0134 µg/mL; in assay [12], 0.0461 µg/mL; in [13] it was 0.284 µg/mL; with human LILRB1 on cells [15], 0.0616 µg/mL; in the assay with human LILRB2 on cells [14] it was 0.00086 µg/mL.
